This passage reports amyloid nucleation score results from the supplement of paper PMC12042874.

± gives the uncertainty stated by the source.

A short description of the data set: amyloid nucleation score (Sup35N fusion, yeast selection) (log enrichment); library NNK2; higher = more nucleation; inactive = no reads after selection. In outline: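 Sup35N was fused to peptides of 20 random codons and expressed in psi-negative yeast, which were induced with 100 μM copper sulfate for 24 hours and then grown on medium lacking adenine and uracil for 7 days at 30°C. Plasmid inserts from input and output were sequenced on Illumina. The nucleation score is the DiMSum log enrichment of output over input reads, centred on the mode score of non-aggregating sequences. Sequences with under 100 input reads were left out, and random libraries had three technical output replicates.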
ILWDTIREVHVHADMDMAPN showed an amyloid nucleation score of -0.782 ± 0.61.

IMMWFYPARTRQELASYEDQ: the amyloid nucleation score amounted to 2.12 ± 0.089.

IMNKVAWWIFMRMLSRGFVT displayed an amyloid nucleation score of -1.1 ± 0.54.

The substance IMPVMLERTGLSGLMCNGWG returned an amyloid nucleation score of -0.315 ± 0.65.

IMRCGMLVASKFQGEGRNRT came in with an amyloid nucleation score of 0.747 ± 0.43.

As to INCFSLLEPLEYFSRLCQQR, the amyloid nucleation score was -0.276 ± 0.55.

Consider INFGWCFYMTRRWVCGMVFR, for which the amyloid nucleation score worked out at 0.106 ± 1.

Take INGPCVYFNFL: the amyloid nucleation score was determined as 6.425 ± 0.057.

For INTSELNVFRS, the amyloid nucleation score result is “inactive”.

On to INVSVFVVFRNRQRLKC, for which the amyloid nucleation score came out at 7.363 ± 0.058.

In turn, IPALN showed an amyloid nucleation score of -0.963 ± 0.55.

On to IPASDRYKVFRLWHQFRLVG, for which the amyloid nucleation score was -0.001 ± 0.56.

IPGVLLTYVIISRAPGGIPD: the amyloid nucleation score was -0.545 ± 0.64.

Consider IPNSGRGWSPAWPKMALTYS, for which the amyloid nucleation score turned out to be 0.746 ± 0.24.

In turn, IPQEYPSDSMDVVMYISTLV returned an amyloid nucleation score of -0.016 ± 0.79.

Turning to IPTSYSRPITIWGYR, the amyloid nucleation score was -1.3 ± 0.64.

Take IPVSMWQDRVTEVLDFGLRK: the amyloid nucleation score came to 0.389 ± 0.8.

On to IPYGMSWTWSH, for which the amyloid nucleation score is -0.565 ± 0.3.

As for IPYYIDKKQSKMCNGFWS, the amyloid nucleation score worked out at 0.572 ± 0.57.

In the case of IQKVVIVYSHDVYSDQ, the amyloid nucleation score was 6.737 ± 0.048.

Substance IQLDTESSLVKRRAWYG returned an amyloid nucleation score of 0.34 ± 0.64.

Substance IQRPADRIQHMTMWHTQDLV returned an amyloid nucleation score of 1.14 ± 0.37.

Regarding IQSFVKYKNVSRMYLTCPNL, the amyloid nucleation score stood at 1.2 ± 0.2.

Substance IQTHSSSWG yielded an amyloid nucleation score of -0.288 ± 1.

For the substance IQVMSDMFKCDVTNVMGRRG, the amyloid nucleation score came to 2.99 ± 0.094.

Consider IRFANVPSRNKFH, for which the amyloid nucleation score was determined as 0.486 ± 0.36.

Consider IRFNAYLRDEDYSKIREVLG, for which the amyloid nucleation score is -1.41 ± 0.54.

In turn, IRGYYYGMRYSDWGSC registered an amyloid nucleation score of -0.06 ± 0.31.

Take IRKALNASVLKLT: the amyloid nucleation score stood at 1.1 ± 0.36.

Consider IRLTRY, for which the amyloid nucleation score was -0.338 ± 0.35.

Turning to IRSKSWVVDTQFRPIDSLLV, the amyloid nucleation score stood at 0.646 ± 0.49.

As for IRVFSDGAFKTEFTTKATLL, the amyloid nucleation score worked out at 0.328 ± 0.65.

Turning to IRVGICAVDGPACKRLYSCM, the amyloid nucleation score was -0.176 ± 0.35.

Turning to IRVRGFPSSHRSV, the amyloid nucleation score is -0.901 ± 0.78.

In the case of ISDFQACIRGDRWDEKGYIS, the amyloid nucleation score entry is “inactive”.

With ISDKSVV, the amyloid nucleation score result is “inactive”.

For the substance ISECR, the amyloid nucleation score was -0.432 ± 1.1.

ISFMQGDCRWHQVNSLQRIM gave an amyloid nucleation score of -0.94 ± 0.54.

The substance ISFWSHSDTFVGNEGEHSVR registered an amyloid nucleation score of 1.29 ± 0.42.

Regarding ISFYQWRPWNFLRYRRGNAH, the amyloid nucleation score was found to be 0.237 ± 0.31.

In turn, ISGTHLCSRFYIRYALCGLK came in with an amyloid nucleation score of 4.66 ± 0.079.

Substance ISHISDL gave an amyloid nucleation score of 4.61 ± 0.072.

For ISIVYNSAMSIHHDFLILLC, the amyloid nucleation score stood at 5.32 ± 0.094.

In turn, ISNGYPVDRHSWVNILSLT gave an amyloid nucleation score of 1.23 ± 0.47.

ISPISLTISLLIGYTSGCLR came in with an amyloid nucleation score of 3.15 ± 0.066.

For ISPLIG, the amyloid nucleation score came out at 0.33 ± 0.49.

As for ISSDLWVHSFNTILSENGVC, the amyloid nucleation score was -0.674 ± 0.63.

The substance ISSYEVELDALIVWGDTSSG came in with an amyloid nucleation score of 0.006 ± 0.49.

With ISTMSGPFVSRLWYSAYNTA, the amyloid nucleation score was -0.345 ± 0.64.

ISYIIKILRKVVSWDNDMEV showed an amyloid nucleation score of -1.25 ± 0.45.

Consider ITINSMSPRLPIRLRVVWKG, for which the amyloid nucleation score entry was “inactive”.

As for ITPMFPCLVVWWWESR, the amyloid nucleation score was -0.235 ± 0.61.

As to ITQRFKTWRCGGGDEVRQAN, the amyloid nucleation score turned out to be 0.239 ± 0.49.

ITYGKVLR: the amyloid nucleation score came out at 0.379 ± 0.44.

ITYLWYISVLYREMPLCCAS had an amyloid nucleation score of 0.237 ± 0.25.

Turning to IVACGCVSVSRRSLP, the amyloid nucleation score is 3.09 ± 0.059.

In turn, IVCWTMVVDLIVDQMLTAYR gave an amyloid nucleation score of 1.03 ± 0.28.

In the case of IVGHRVLACVRPRRVVTRYG, the amyloid nucleation score stood at 0.118 ± 0.63.

On to IVHQGLLIRPIDGVGRLTLS, for which the amyloid nucleation score amounted to 4.05 ± 0.1.

Consider IVKFKKRVDRHLSSGDQLVR, for which the amyloid nucleation score is 1.19 ± 0.61.

On to IVLSDSISQAFWASICHQGF, for which the amyloid nucleation score was -1.55 ± 1.1.

Substance IVMVPFLTIPVLYLVVMSSL gave an amyloid nucleation score of -0.788 ± 1.1.

In the case of IVQLWIWGVVPPFSDISHAL, the amyloid nucleation score is 7.866 ± 0.05.

IVQSSTAKHEDQVFGKKV gave an amyloid nucleation score of 1.24 ± 0.61.

Substance IVRRGAYSTGWMVMMLLQSL yielded an amyloid nucleation score of 0.859 ± 0.8.

Substance IVRVIMYLCGNLLVNRWGNA displayed an amyloid nucleation score of 0.082 ± 1.1.

As to IVSVFQYRTVNIFVGFYYIR, the amyloid nucleation score entry was “inactive”.

Substance IVWLMHSSSHRT registered an amyloid nucleation score of 5.79 ± 0.076.

For the substance IWDEQCRTLCGARCNDVSAW, the amyloid nucleation score was 0.799 ± 0.3.

In turn, IWGCKELLDVRTAQGVDGM returned an amyloid nucleation score of 3.87 ± 0.078.

As to IWGGFYS, the amyloid nucleation score is -1.29 ± 0.75.

Turning to IWTTYFMGLRT, the amyloid nucleation score was -0.394 ± 0.78.

For IYDCDTTMVSNNMRYILVLH, the amyloid nucleation score was -0.858 ± 0.33.

IYKILLLLAGRRGFDCLVFS: the amyloid nucleation score was -0.926 ± 0.74.

The substance IYLCTDSLSYRSFVRGN returned an amyloid nucleation score of 1.18 ± 0.17.

Turning to IYLTSIYRQFSMLLLGSRTE, the amyloid nucleation score result was “inactive”.

Take IYMRRCSVLGSHCH: the amyloid nucleation score turned out to be 0.081 ± 1.1.

Consider IYNMRHSMTMFHCYGFLRRV, for which the amyloid nucleation score was -0.976 ± 0.63.

Turning to IYPSVRYPMYAITKRYSRVG, the amyloid nucleation score is -0.769 ± 0.28.

IYREVYAL: the amyloid nucleation score entry was “inactive”.

In turn, IYVFGIGTYMVTQFLCSTTI had an amyloid nucleation score of 6.909 ± 0.031.

IYWLSYQTMVPIQAVYIHRC registered an amyloid nucleation score of -0.087 ± 0.42.

With IYYLRLWSM, the amyloid nucleation score result was “inactive”.

In the case of KAGESWTEGDSAVWGFLRLE, the amyloid nucleation score was 0.942 ± 0.81.

As for KAKLMKRSFWMWSCLLCFR, the amyloid nucleation score was found to be 0.912 ± 0.74.

In turn, KASTRQ displayed an amyloid nucleation score of 1.51 ± 0.34.

KATWS came in with an amyloid nucleation score of -1.2 ± 0.76.

As to KCHCRAMS, the amyloid nucleation score entry is “inactive”.

Turning to KCRLSIF, the amyloid nucleation score result is “inactive”.

For the substance KCVVKELYWLWFHLSSVNLY, the amyloid nucleation score is -1.23 ± 1.1.

The substance KCYQSFNNADALM gave an amyloid nucleation score of -0.627 ± 0.33.

In the case of KDGEVAAMPGRGVHQVMGEK, the amyloid nucleation score amounted to 0.325 ± 0.49.

In turn, KDLGA yielded an amyloid nucleation score of 3.08 ± 0.13.

On to KDPLNYNSYSVLLDIWWNLS, for which the amyloid nucleation score was determined as 1.57 ± 0.15.

KELLMAIASWSRLSGDIAVD registered an amyloid nucleation score of -0.86 ± 0.78.

In turn, KFGSWDHSACYSRWYSKSFV yielded an amyloid nucleation score of -0.012 ± 1.1.

The substance KFIFTSLAN displayed an amyloid nucleation score of -0.425 ± 0.61.

For KFIPLINIRTQL, the amyloid nucleation score result is “inactive”.

In the case of KFSKIRFAFIIFGSKPYMRV, the amyloid nucleation score is -0.875 ± 0.49.

In turn, KFWLCDEGYWWNVASGLSSV registered an amyloid nucleation score of 0.845 ± 0.32.

Turning to KGGAARSVWISMCFFKAFYR, the amyloid nucleation score is -0.358 ± 1.

The substance KGGSRLCNFRSATKLSGPLL yielded an amyloid nucleation score of 0.597 ± 0.46.

Consider KGRGEMSLLFYSILLVGFCL, for which the amyloid nucleation score result was “inactive”.

Consider KHMNAYCNVTYQIDFRCIIS, for which the amyloid nucleation score entry was “inactive”.

On to KHMYYYCLYANELQVAVEMN, for which the amyloid nucleation score is -0.235 ± 0.45.

In turn, KIFSSF gave an amyloid nucleation score of -1.01 ± 1.1.

Substance KIIISYGQCK had an amyloid nucleation score of 2.71 ± 0.2.

For the substance KILNPERRSNGWVMMKFVVD, the amyloid nucleation score is -0.599 ± 1.

Turning to KIVSWAMIIARVVYCDQDL, the amyloid nucleation score result was “inactive”.

Regarding KIWHLSQYCAVFSLVFKGLN, the amyloid nucleation score is 2.41 ± 0.15.

KKDSSWFRLNDKKVVSSHKR returned an amyloid nucleation score of -0.215 ± 0.2.

Regarding KKLALKVVVSNCFKK, the amyloid nucleation score was found to be 5.991 ± 0.048.

Consider KKSRNPHGKFTWTFGFVKKL, for which the amyloid nucleation score is -1.76 ± 1.1.

Regarding KLANV, the amyloid nucleation score entry is “inactive”.

As for KLGVKLASTLGISRLPHTTS, the amyloid nucleation score was 0.827 ± 0.23.

For KLIHWIILVWFSSGTLPCND, the amyloid nucleation score is -0.133 ± 0.5.

For KLMFRHV, the amyloid nucleation score amounted to 5.01 ± 0.081.

Take KLNCMRGLPGLCPRWFIIAC: the amyloid nucleation score was determined as 0.089 ± 1.1.

In turn, KLPFICINRGWWLVGRINSS displayed an amyloid nucleation score of 3.07 ± 0.18.

As to KLQFVGFCTNDAKYKGRIPG, the amyloid nucleation score was determined as 2.35 ± 0.089.

The substance KLYKCQRQCPALAKVTYGYK gave an amyloid nucleation score of 0.332 ± 0.27.

KMCLIRYMHNPKVGIRLGRS yielded an amyloid nucleation score of 0.102 ± 0.33.

On to KMHCGFDFEWVTTYNTTIVR, for which the amyloid nucleation score is -0.369 ± 0.47.

In the case of KMHLAQ, the amyloid nucleation score entry was “inactive”.

On to KMKFKKENFC, for which the amyloid nucleation score was -0.858 ± 1.

For KMMLSTRSQYPS, the amyloid nucleation score was 0.489 ± 0.36.

KMQMLWTGVCRVLFVAPQPN gave an amyloid nucleation score of 0.319 ± 0.36.

KMTYP showed an amyloid nucleation score of 2.14 ± 0.13.

Regarding KNNRVAFTLYFSQTARDWMH, the amyloid nucleation score worked out at 5.156 ± 0.046.

Substance KNNTADWWIRSNSERYRN displayed an amyloid nucleation score of -0.039 ± 0.46.

In turn, KNSWAAVPRSEEYCREVIGH yielded an amyloid nucleation score of 0.482 ± 0.56.

KPFFEKFVSTLGLWFEQLKS: the amyloid nucleation score was -0.574 ± 0.42.

As for KPWVTLLVCCSVYRFFMYYA, the amyloid nucleation score was found to be 4.96 ± 0.081.

With KQLFSLISYVG, the amyloid nucleation score is -1.4 ± 1.1.

For the substance KQLMRGIWDRG, the amyloid nucleation score is -0.217 ± 0.79.

Turning to KRCYCIKGVCNLNGISPKVK, the amyloid nucleation score is -0.468 ± 0.36.

KRFYMT: the amyloid nucleation score was 1.31 ± 0.081.

With KRRSQIRMTNDNLASVNMKN, the amyloid nucleation score was determined as 1.43 ± 0.096.

On to KRSLLQKLCC, for which the amyloid nucleation score is -0.421 ± 0.61.

KRSVAVFRRCV: the amyloid nucleation score turned out to be 0.817 ± 0.44.
